Legend:
Assay in all cases: cell-based or functional assay
[1] = biological target: HIV-1 Env of Q769.d22 (HIV-1)
[2] = biological target: HIV-1 Env of CAP45.G3 (HIV-1)
[3] = biological target: HIV-1 Env of Q23.17 (HIV-1)
[4] = biological target: HIV-1 Env of MB201 (HIV-1)
[5] = biological target: HIV-1 Env of Q259.d2.17 (HIV-1)
[6] = biological target: HIV-1 Env of DU422.01 (HIV-1)
[7] = biological target: HIV-1 Env of TH976.17 (HIV-1)
[8] = biological target: HIV-1 Env of WITO.33 (HIV-1)
[9] = biological target: HIV-1 Env of BG505.w6m (HIV-1)
[10] = biological target: HIV-1 Env of QH0692.42 (HIV-1)
[11] = biological target: HIV-1 Env of 191821.E6.1 (HIV-1)
[12] = biological target: HIV-1 Env of AC10.29 (HIV-1)
[13] = biological target: HIV-1 Env of Q842.d12 (HIV-1)
[14] = biological target: HIV-1 Env of ZM197.7 (HIV-1)
[15] = biological target: HIV-1 Env of Q168.a2 (HIV-1)
[16] = biological target: HIV-1 Env of CAP210.E8 (HIV-1)
[17] = biological target: HIV-1 Env of CAP256.PI (HIV-1)
[18] = biological target: HIV-1 Env of UG037.8 (HIV-1)
[19] = biological target: HIV-1 Env of PVO.04 (HIV-1)
[20] = biological target: HIV-1 Env of C1080.c3 (HIV-1)
[21] = biological target: HIV-1 Env of MB539.2B7 (HIV-1)
[22] = biological target: HIV-1 Env of 3016.V5.c36 (HIV-1)
[23] = biological target: HIV-1 Env of TRJO.58 (HIV-1)
[24] = biological target: HIV-1 Env of ZM109.4 (HIV-1)
[25] = biological target: HIV-1 Env of REJO.67 (HIV-1)
[26] = biological target: HIV-1 Env of 96ZM651.02 (HIV-1)
[27] = biological target: HIV-1 Env of SC422.8 (HIV-1)
[28] = biological target: HIV-1 Env of CAP244.D3 (HIV-1)
[29] = biological target: HIV-1 Env of CNE3 (HIV-1)
[30] = biological target: HIV-1 Env of DU172.17 (HIV-1)
[31] = biological target: HIV-1 Env of CAP256.SU (HIV-1)
[32] = biological target: HIV-1 Env of CM244.ec1 (HIV-1)
[33] = biological target: HIV-1 Env of 0260.v5.c36 (HIV-1)
[34] = biological target: HIV-1 Env of TRO.11 (HIV-1)
[35] = biological target: HIV-1 Env of CAAN.A2 (HIV-1)
[36] = biological target: HIV-1 Env of KER2008.12 (HIV-1)
[37] = biological target: HIV-1 Env of ZM233.6 (HIV-1)
[38] = biological target: HIV-1 Env of 6535.3 (HIV-1)
[39] = biological target: HIV-1 Env of ZM53.12 (HIV-1)
[40] = biological target: HIV-1 Env of Q461.e2 (HIV-1)
[41] = biological target: HIV-1 Env of DU156.12 (HIV-1)
[42] = biological target: HIV-1 Env of 6405.v4.c34 (HIV-1)
[43] = biological target: HIV-1 Env of RHPA.7 (HIV-1)
[44] = biological target: HIV-1 Env of THRO.18 (HIV-1)
[45] = biological target: HIV-1 Env of ZM214.15 (HIV-1)
[46] = biological target: HIV-1 Env of ZM135.10a (HIV-1)
[47] = biological target: HIV-1 Env of ZM249.1 (HIV-1)
[48] = biological target: HIV-1 Env of KER2018.11 (HIV-1)
[49] = biological target: HIV-1 Env of RW020.2 (HIV-1)

CAP256-VRC26.15 (antibody)
IC50 [1]: > 50 µg/mL
IC50 [2]: > 50 µg/mL
IC50 [3]: 0.338 µg/mL
IC50 [4]: > 50 µg/mL
IC50 [5]: 0.657 µg/mL
IC50 [6]: 0.153 µg/mL
IC50 [7]: > 50 µg/mL
IC50 [8]: > 50 µg/mL
IC50 [9]: 11.7 µg/mL
IC50 [10]: > 50 µg/mL
IC50 [11]: > 50 µg/mL
IC50 [12]: > 50 µg/mL
IC50 [13]: 9.35 µg/mL
IC50 [14]: 14.6 µg/mL
IC50 [15]: > 50 µg/mL
IC50 [16]: 0.019 µg/mL
IC50 [17]: > 50 µg/mL
IC50 [18]: > 50 µg/mL
IC50 [19]: 30 µg/mL
IC50 [20]: > 50 µg/mL
IC50 [21]: > 50 µg/mL
IC50 [22]: 0.16 µg/mL
IC50 [23]: > 50 µg/mL
IC50 [24]: > 50 µg/mL
IC50 [25]: > 50 µg/mL
IC50 [26]: > 50 µg/mL
IC50 [27]: > 50 µg/mL
IC50 [28]: > 50 µg/mL
IC50 [29]: > 50 µg/mL
IC50 [30]: > 50 µg/mL
IC50 [31]: 0.008 µg/mL
IC50 [32]: 0.112 µg/mL
IC50 [33]: > 50 µg/mL
IC50 [34]: > 50 µg/mL
IC50 [35]: > 50 µg/mL
IC50 [36]: > 50 µg/mL
IC50 [37]: 0.192 µg/mL
IC50 [38]: > 50 µg/mL
IC50 [39]: 0.014 µg/mL
IC50 [40]: 19.9 µg/mL
IC50 [41]: 10.4 µg/mL
IC50 [42]: > 50 µg/mL
IC50 [43]: > 50 µg/mL
IC50 [44]: > 50 µg/mL
IC50 [45]: > 50 µg/mL
IC50 [46]: > 50 µg/mL
IC50 [47]: > 50 µg/mL
IC50 [48]: 0.04 µg/mL
IC50 [49]: > 50 µg/mL

CAP256-VRC26.20 (antibody)
IC50 [1]: > 50 µg/mL
IC50 [2]: > 50 µg/mL
IC50 [3]: > 50 µg/mL
IC50 [4]: > 50 µg/mL
IC50 [5]: > 50 µg/mL
IC50 [6]: > 50 µg/mL
IC50 (neutralization, TZM-bl) [7]: > 50 µg/mL
IC50 [8]: > 50 µg/mL
IC50 [9]: > 50 µg/mL
IC50 [10]: > 50 µg/mL
IC50 [11]: > 50 µg/mL
IC50 [12]: > 50 µg/mL
IC50 [13]: > 50 µg/mL
IC50 [14]: > 50 µg/mL
IC50 [15]: > 50 µg/mL
IC50 [16]: > 50 µg/mL
IC50 [17]: > 50 µg/mL
IC50 [18]: > 50 µg/mL
IC50 [19]: > 50 µg/mL
IC50 [20]: > 50 µg/mL
IC50 [21]: > 50 µg/mL
IC50 [22]: > 50 µg/mL
IC50 [23]: > 50 µg/mL
IC50 [24]: > 50 µg/mL
IC50 [25]: > 50 µg/mL
IC50 [26]: > 50 µg/mL
IC50 [27]: > 50 µg/mL
IC50 [28]: > 50 µg/mL
IC50 (neutralization, TZM-bl) [29]: > 50 µg/mL
IC50 [30]: > 50 µg/mL
IC50 [31]: > 50 µg/mL
IC50 [32]: > 50 µg/mL
IC50 [33]: > 50 µg/mL
IC50 [34]: > 50 µg/mL
IC50 [35]: > 50 µg/mL
IC50 [36]: > 50 µg/mL
IC50 [37]: > 50 µg/mL
IC50 [38]: > 50 µg/mL
IC50 [39]: 1.87 µg/mL
IC50 [40]: > 50 µg/mL
IC50 [41]: > 50 µg/mL
IC50 [42]: > 50 µg/mL
IC50 [43]: > 50 µg/mL
IC50 [44]: > 50 µg/mL
IC50 [45]: > 50 µg/mL
IC50 [46]: > 50 µg/mL
IC50 [47]: > 50 µg/mL
IC50 [48]: > 50 µg/mL
IC50 [49]: > 50 µg/mL

CAP256-VRC26.23 (antibody)
IC50 [1]: > 50 µg/mL
IC50 [2]: > 50 µg/mL
IC50 [3]: > 50 µg/mL
IC50 [4]: > 50 µg/mL
IC50 [5]: > 50 µg/mL
IC50 [6]: > 50 µg/mL
IC50 (neutralization, TZM-bl) [7]: > 50 µg/mL
IC50 [8]: > 50 µg/mL
IC50 [9]: > 50 µg/mL
IC50 [10]: > 50 µg/mL
IC50 [11]: > 50 µg/mL
IC50 [12]: > 50 µg/mL
IC50 [13]: > 50 µg/mL
IC50 [14]: > 50 µg/mL
IC50 [15]: > 50 µg/mL
IC50 [16]: 0.019 µg/mL
IC50 [17]: > 50 µg/mL
IC50 [18]: > 50 µg/mL
IC50 [19]: > 50 µg/mL
IC50 [20]: > 50 µg/mL
IC50 [21]: > 50 µg/mL
IC50 [22]: > 50 µg/mL
IC50 [23]: > 50 µg/mL
IC50 [24]: > 50 µg/mL
IC50 [25]: > 50 µg/mL
IC50 [26]: > 50 µg/mL
IC50 [27]: > 50 µg/mL
IC50 [28]: > 50 µg/mL
IC50 (neutralization, TZM-bl) [29]: > 50 µg/mL
IC50 [30]: > 50 µg/mL
IC50 [31]: 0.019 µg/mL
IC50 [32]: > 50 µg/mL
IC50 [33]: > 50 µg/mL
IC50 [34]: > 50 µg/mL
IC50 [35]: > 50 µg/mL
IC50 [36]: > 50 µg/mL
IC50 [37]: > 50 µg/mL
IC50 [38]: > 50 µg/mL
IC50 [39]: 0.028 µg/mL
IC50 [40]: > 50 µg/mL
IC50 [41]: > 50 µg/mL
IC50 [42]: > 50 µg/mL
IC50 [43]: > 50 µg/mL
IC50 [44]: > 50 µg/mL
IC50 [45]: > 50 µg/mL
IC50 [46]: > 50 µg/mL
IC50 [47]: > 50 µg/mL
IC50 [48]: 10 µg/mL
IC50 [49]: > 50 µg/mL
